This experiment deals with murine SOD1 mRNA. Briefly: CNS knock-down of SOD1 mRNA after systemic (SC or IV) administration (RT-qPCR). To be noted: SC QDx4 at 15 mg/kg (siRNA molar equivalent), one week after last dose. In kind it is in vivo, C57Bl/6 mice. As for the experimental part:
VHH-siSOD1m-5'VP conjugates or heterodimeric VHH-hFc-siSOD1m-5'VP conjugates were generated and compared for their potential to trigger BBB-crossing and functional delivery in CNS tissues following systemic administration. Wild-type C57Bl/6 mice (4-8 per group) were administered with either four daily SC doses (QDx4) of unconjugated siSOD1m-5'VP or the C5-siSOD1m-5'VP conjugate at 15 mg/kg (siRNA molar equivalent), or three IV doses of the C5-hFc-siSOD1m-5'VP conjugate every two days (Q2Dx3) at 1.5 mg/kg (siRNA molar equivalent), compared to PBS injected mice. […] RNA samples were analyzed and dosed using a Fragment Analyzer RNA kit in a Fragment Analyzer system (Agilent). Relative RNA expression levels were quantified by RT-qPCR using the TaqMan™ Fast Universal PCR Master Mix (2X) no AmpErase™ LTNG kit (Applied Biosystems) and commercially available TaqMan™ probes for the target murine SOD1 and reference RpL13 and PUM1 genes (Applied Biosystems). Expression data were analyzed using the […]Cq method normalized to the expression of the reference RpL13 gene, for brain regions, or RpL13 and PUM1 genes for total brain, spinal cord, liver, kidney (multiplex qPCR), based on raw quantification cycle (Cq) values (Bustin et al.). The results are expressed as means ± standard error of the mean (SEM) and are presented as mRNA levels relative to the control animals injected with PBS. […]
In general terms: Quantitative PCR measures a nucleic acid by following its amplification.

B1: C5-siSOD1m-5'VP: TfR-binding VHH-siRNA conjugate wherein VHH is C5 (conjugate)
VHH: EVQLVESGGGVVQPGGSLKLSCVASGTDFSINFIRWYRQAPGKQREFVAGFTATGNTNYADSMKGRFTISRDNTKNAVYLQIDSLKPEDTAVYYCYMLDKWGQGTQVTVSSAAAEQKLISEEDLNGAAHHHHHHGS
Take B1: the “SOD1 mRNA KD in total brain and spinal cord” value was 30-40%.

Source of the values: patent EP4480965A1, “TRANSFERRIN RECEPTOR-BINDING MOLECULES, CONJUGATES THEREOF AND THEIR USES TO PREVENT OR TREAT CNS DISEASES” (Vect-Horus, priority 2023, dated 2024).
